Measured values reported in paper PMC9360328, “Tenuous Transcriptional Threshold of Human Sex Determination. I. SRY and Swyer Syndrome at the Edge of Ambiguity”.

What was measured:
Experiment in all cases: FRET titration; 15 C, 25 nM DNA; FRET titration: 10 mM potassium phosphate, 10 mM Tris-HCl, 140 mM KCl, 1 mM EDTA, 1 mM DTT, pH 8.4, 15 C, 25 nM DNA; PGE: 10 nM DNA, 20 nM protein, 0.5x TBE, 4
Settings in all cases: protein: recombinant; label: 5'-6-FAM (hexanyl linker) on upper strand; 5'-TAMRA (hexanyl linker) on lower strand; blunt
SRY HMG box Y72F (Y127F) = SRY HMG box Y72F (Y127F) (Homo sapiens, UniProt Q05066 56-141, Y127F)
SRY HMG box Y72F (Y127F), sequence (Q05066 56-141 Y127F): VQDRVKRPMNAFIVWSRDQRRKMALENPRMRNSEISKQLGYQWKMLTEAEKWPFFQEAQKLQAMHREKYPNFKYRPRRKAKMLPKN

SRY HMG box Y72H (Y127H) = SRY HMG box Y72H (Y127H) (Homo sapiens, UniProt Q05066 56-141, Y127H)
SRY HMG box Y72H (Y127H), sequence (Q05066 56-141 Y127H): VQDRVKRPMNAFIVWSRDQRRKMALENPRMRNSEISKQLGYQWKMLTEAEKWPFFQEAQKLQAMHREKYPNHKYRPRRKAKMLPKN

SRY HMG box Y72C (Y127C) = SRY HMG box Y72C (Y127C) (Homo sapiens, UniProt Q05066 56-141, Y127C)
SRY HMG box Y72C (Y127C), sequence (Q05066 56-141 Y127C): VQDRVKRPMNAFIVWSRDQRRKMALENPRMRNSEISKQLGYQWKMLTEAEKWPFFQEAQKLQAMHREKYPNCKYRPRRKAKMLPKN

B1: 15-bp consensus SRY site, FRET-labeled (dsDNA)
DNA 1: TCGGTGATTGTTCAG
DNA 2: CTGAACAATCACCGA
B1 showed a Kd (SRY HMG box Y72F (Y127F)) of 12 ± 3 nM, a Kd (SRY HMG box Y72H (Y127H)) of 19 ± 4 nM and a Kd (SRY HMG box Y72C (Y127C)) of 21 ± 5 nM.
